System: target antigen-expressing cell line
Experiment: Jurkat NFAT-GFP assay, coculture with target cell lines expressing the respective target antigen (summary Table 10A)
Assay type: cell-based, human
Design: key: The signs +/−, +, 2+ etc. after the name of the cell lines indicate the relative degree of positivity on the Jurkat-NFAT-GFP assay as measured by the % GFP positive cells; +: relative degree of positivity on the Jurkat-NFAT-GFP assay as measured by the % GFP positive cells; 2+: relative degree of positivity on the Jurkat-NFAT-GFP assay as measured by the % GFP positive cells
Method in brief: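 Stable SIR expression in Jurkat-NFAT-GFP cells by lentiviral transfer and puromycin selection; coculture with target cells (E:T approximately 1:2) for 4 to 18 hours; flow cytometric measurement of NFAT-driven GFP; scoring as positive when % GFP-positive cells exceeds that of parental reporter cells.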

B1: 092216-G01 (protein)
chain: MALPVTALLLPLALLLHAARPLEGKPIPNPLLGLDSTGSGEDLKNVFPPEVAVFEPSKAEIAHTQKATLVCLATGFYPDHVELSWWVNGKEVHSGVCTDPQPLKEQPALNDSRYCLSSRLRVSATFWQNPRNHFRCQVQFYGLSENDEWTQDRAKPVTQIVSAEAWGRADCGITSASYHQGVLSATILYEILLGKATLYAVLVSALVLMAMVKRKDSRGRAKRSGSGATNFSLLKQAGDVEENPGPTSTMALPVTALLLPLALLLHAARPDIQMTQSPSSLSASLGERVSLTCRATQELSGYLSWLQQKPDGTIKRLIYAASTLDSGVPKRFSGNRSGSDYSLTISSLESEDFADYYCLQYAIYPYTFGGGTKLEIKGGGGSGGGGSGGGGSEVQLQQSGPELVKPGASVKMSCKASGYTFTSYFIHWVKQKPGQGLEWIGFINPYNDGSKYNEKFKGKATLTSDKSSSTAYMELSSLTSEDSAVYYCTRDDGYYGYAMDYWGQGTSVTVSSTREQKLISEEDGSGIQNPDPAVYQLRDSKSSDKSVCLFTDFDSQTNVSQSKDSDVYITDKCVLDMRSMDFKSNSAVAWSNKSDFACANAFNNSIIPEDTFFPSSDVPCDVKLVEKSFETDTNLNFQNLSVIGFRILLLKVAGFNLLMTLRLWSSRAKRSGSGVKQTLNFDLLKLAGDVESNPGPSRGHMTEYKPTVRLATRDDVPRAVRTLAAAFADYPATRHTVDPDRHIERVTELQELFLTRVGLDIGKVWVADDGAAVAVWTTPESVEAGAVFAEIGPRMAELSGSRLAAQQQMEGLLAPHRPKEPAWFLATVGVSPDHQGKGLGSAVVLPGVEAAERAGVPAFLETSAPRNLPFYERLGFTVTADVEVPEGPRTWCMTRKPGA
modifications: Synthetic Immune Receptor (SIR)
Coculture with HL60 cells
  NFAT-GFP ASSAY Positive Cell lines: HL60 (+/−)

B2: 041816-A03 (protein)
chain: MALPVTALLLPLALLLHAARPDIQMTQSPSSLSASLGERVSLTCRATQELSGYLSWLQQKPDGTIKRLIYAASTLDSGVPKRFSGNRSGSDYSLTISSLESEDFADYYCLQYAIYPYTFGGGTKLEIKLEDLKNVFPPEVAVFEPSEAEISHTQKATLVCLATGFYPDHVELSWWVNGKEVHSGVSTDPQPLKEQPALNDSRYCLSSRLRVSATFWQNPRNHFRCQVQFYGLSENDEWTQDRAKPVTQIVSAEAWGRADCGFTSESYQQGVLSATILYEILLGKATLYAVLVSALVLMAMVKRKDSRGRAKRSGSGATNFSLLKQAGDVEENPGPTSMDWIWRILFLVGAATGAHSFEEVQLQQSGPELVKPGASVKMSCKASGYTFTSYFIHWVKQKPGQGLEWIGFINPYNDGSKYNEKFKGKATLTSDKSSSTAYMELSSLTSEDSAVYYCTRDDGYYGYAMDYWGQGTSVTVSSTREQKLISEEDGSGTPFPSLAPPIMLLVDGKQQMVVVCLVLDVAPPGLDSPIWFSAGNGSALDAFTYGPSPATDGTWTNLAHLSLPSEELASWEPLVCHTGPGAEGHSRSTQPMHLSGEASTARTCPQEPLRGTPGGALWLGVLRLLLFKLLLFDLLLTCSCLCDPAGPLPSPATTTRLRALGSHRLHPATETGGREATSSPRPQPRDRRWGDTPPGRKPGSPVRAKRSGSGVKQTLNFDLLKLAGDVESNPGPSRGHMTEYKPTVRLATRDDVPRAVRTLAAAFADYPATRHTVDPDRHIERVTELQELFLTRVGLDIGKVWVADDGAAVAVWTTPESVEAGAVFAEIGPRMAELSGSRLAAQQQMEGLLAPHRPKEPAWFLATVGVSPDHQGKGLGSAVVLPGVEAAERAGVPAFLETSAPRNLPFYERLGFTVTADVEVPEGPRTWCMTRKPGA
modifications: Polynucleotide encoding a Synthetic Immune Receptor (SIR)
Coculture with L363 cells
  NFAT-GFP ASSAY Positive Cell lines: (+/−), L363 (+/−),
Coculture with RAJI cells
  NFAT-GFP ASSAY Positive Cell lines: RAJI (+/−), U266
Coculture with U266 cells
  NFAT-GFP ASSAY Positive Cell lines: (+/−), L363 (+/−),

B3: 082317-G04 (protein)
chain: MALPVTALLLPLALLLHAARPLEGKPIPNPLLGLDSTGSGEDLKNVFPPEVAVFEPSKAEIAHTQKATLVCLATGFYPDHVELSWWVNGKEVHSGVCTDPQPLKEQPALNDSRYCLSSRLRVSATFWQNPRNHFRCQVQFYGLSENDEWTQDRAKPVTQIVSAEAWGRADCGITSASYHQGVLSATILYEILLGKATLYAVLVSALVLMAMVKRKDSRGRAKRSGSGATNFSLLKQAGDVEENPGPTSMALPVTALLLPLALLLHAARPQIVLTQSPAIMSASPGEKVTITCSASSSVSYMHWFQQKPGTSPKLWIYSTSNLASGVPARFSGSGSGTSYSLTISRMEAEDAATYYCQQRSSYPPTFGGGTKLEIKGGGGSGGGGSGGGGSQVQLQQSGAELMKPGASVKISCKATGYTFSSYWIEWVKQRPGHGLEWIGEILPGSGSTNYNEKFKGKATFTADTSSNTAYMQLSSLTSEDSAVYYCARYDYPWFAYWGQGTLVTVSATREQKLISEEDGSGIQNPDPAVYQLRDSKSSDKSVCLFTDFDSQTNVSQSKDSDVYITDKCVLDMRSMDFKSNSAVAWSNKSDFACANAFNNSIIPEDTFFPSSDVPCDVKLVEKSFETDTNLNFQNLSVIGFRILLLKVAGFNLLMTLRLWSSRAKRSGSGVKQTLNFDLLKLAGDVESNPGPSRGHMTEYKPTVRLATRDDVPRAVRTLAAAFADYPATRHTVDPDRHIERVTELQELFLTRVGLDIGKVWVADDGAAVAVWTTPESVEAGAVFAEIGPRMAELSGSRLAAQQQMEGLLAPHRPKEPAWFLATVGVSPDHQGKGLGSAVVLPGVEAAERAGVPAFLETSAPRNLPFYERLGFTVTADVEVPEGPRTWCMTRKPGA
Coculture with L428 cells
  NFAT-GFP ASSAY Positive Cell lines: L428 (+/−)

B4: 091616-Z01 (protein)
chain: MALPVTALLLPLALLLHAARPDIVMTQSPDSLAVSLGERATINCKSSQSILYSSNQKNYLAWYQQKPGQSPKLLIYWASTRESGVPDRFSGSGSGTDFTLTISSLQAEDVAVYYCHQYISSYTFGQGTKLEIKLEEQKLISEEDLGSGEDLKNVFPPEVAVFEPSKAEIAHTQKATLVCLATGFYPDHVELSWWVNGKEVHSGVCTDPQPLKEQPALNDSRYCLSSRLRVSATFWQNPRNHFRCQVQFYGLSENDEWTQDRAKPVTQIVSAEAWGRADCGITSASYHQGVLSATILYEILLGKATLYAVLVSALVLMAMVKRKDSRGRAKRSGSGATNFSLLKQAGDVEENPGPTSMDWIWRILFLVGAATGAHSFEQVQLVQSGAEVKKPGASVKVSCKASGYTFASQWMHWMRQAPGQGLEWIGWINPGNVNTKYNEKFKGRATLTVDTSTNTAYMELSSLRSEDTAVYYCARSTWYRPLDYWGQGTLVTVSSTREQKLISEEDLGSGIQNPDPAVYQLRDSKSSDKSVCLFTDFDSQTNVSQSKDSDVYITDKCVLDMRSMDFKSNSAVAWSNKSDFACANAFNNSIIPEDTFFPSSDVPCDVKLVEKSFETDTNLNFQNLSVIGFRILLLKVAGFNLLMTLRLWSSRAKRSGSGVKQTLNFDLLKLAGDVESNPGPSRGHMTEYKPTVRLATRDDVPRAVRTLAAAFADYPATRHTVDPDRHIERVTELQELFLTRVGLDIGKVWVADDGAAVAVWTTPESVEAGAVFAEIGPRMAELSGSRLAAQQQMEGLLAPHRPKEPAWFLATVGVSPDHQGKGLGSAVVLPGVEAAERAGVPAFLETSAPRNLPFYERLGFTVTADVEVPEGPRTWCMTRKPGA
modifications: Synthetic Immune Receptor (SIR)
SIR-expressing Jurkat-NFAT-GFP cells cocultured with L428, relative % GFP positive cells
  NFAT-GFP ASSAY Positive Cell lines: L428: L428 (+/−)

B5: 041816-C01 (protein)
chain: MALPVTALLLPLALLLHAARPDTIVLTQSPASLAVSLGQRATISCRASESVDSYGNSFMHWYQQKPGQPPKLLIYLASNLESGVPARFSGSGSRTDFTLTIDPVEADDAATYYCQQNNYDPWTFGGGTKLEIKLEGKPIPNPLLGLDSTGSGEDLKNVFPPEVAVFEPSKAEIAHTQKATLVCLATGFYPDHVELSWWVNGKEVHSGVCTDPQPLKEQPALNDSRYCLSSRLRVSATFWQNPRNHFRCQVQFYGLSENDEWTQDRAKPVTQIVSAEAWGRADCGITSASYHQGVLSATILYEILLGKATLYAVLVSALVLMAMVKRKDSRGRAKRSGSGATNFSLLKQAGDVEENPGPTSMDWIWRILFLVGAATGAHSFEEVQLQQSGPELVKPGASVKMSCKASGYTFTSYVMHWVKQKPGQGLEWIGYINPYNDGTKYNEKFKGKATLTSDTSSSTAYMELNSLTSEDSAVYFCARPIYFDNDYFDYWGQGTTLKVSSTREQKLISEEDGSGTPFPSLAPPIMLLVDGKQQMVVVCLVLDVAPPGLDSPIWFSAGNGSALDAFTYGPSPATDGTWTNLAHLSLPSEELASWEPLVCHTGPGAEGHSRSTQPMHLSGEASTARTCPQEPLRGTPGGALWLGVLRLLLFKLLLFDLLLTCSCLCDPAGPLPSPATTTRLRALGSHRLHPATETGGREATSSPRPQPRDRRWGDTPPGRKPGSPVRAKRSGSGVKQTLNFDLLKLAGDVESNPGPSRGHMTEYKPTVRLATRDDVPRAVRTLAAAFADYPATRHTVDPDRHIERVTELQELFLTRVGLDIGKVWVADDGAAVAVWTTPESVEAGAVFAEIGPRMAELSGSRLAAQQQMEGLLAPHRPKEPAWFLATVGVSPDHQGKGLGSAVVLPGVEAAERAGVPAFLETSAPRNLPFYERLGFTVTADVEVPEGPRTWCMTRKPGA
modifications: Polynucleotide encoding a Synthetic Immune Receptor (SIR)
Coculture with L363 cells
  NFAT-GFP ASSAY Positive Cell lines: (+/−), L363 (+/−)
Coculture with RAJI cells
  NFAT-GFP ASSAY Positive Cell lines: RAJI (+/−), U266
Coculture with U266 cells
  NFAT-GFP ASSAY Positive Cell lines: (+/−), L363 (+/−)

From patent US12269859B2, “Synthetic immune receptors and methods of use thereof” (Angeles Therapeutics, Inc., priority 2016, dated 2025)
